# Results taken from doi:10.1101/2019.12.30.891283 (bioRxiv, 2019).
# B1: enoyl-ACP reductase (FabI) from E. coli (enzyme)
# chain: MGFLSGKRILVTGVASKLSIAYGIAQAMHREGAELAFTYQNDKLKGRVEEFAAQLGSDIVLQCDVAEDASIDTMFAELGKVWPKFDGFVHSIGFAPGDQLDGDYVNAVTREGFKIAHDISSYSFVAMAKACRSMLNPGSALLTLSYLGAERAIPNYNVMGLAKASLEANVRYMANAMGPEGVRVNAISAGPIRTLAASGIKDFRKMLAHCEAVTPIRRTVTIEDVGNSAAFLCSDLSAGISGEVVHVDGGFSIAAMNELELK
# Target: the molecule itself
# Assay: native MS
protein,measurement,value
B1,stoichiometry N,4
